According to patent US20070275898:

Target: β subunit of DNA polymerase III of Escherichia coli, P0A988
Sequence (P0A988 whole entry): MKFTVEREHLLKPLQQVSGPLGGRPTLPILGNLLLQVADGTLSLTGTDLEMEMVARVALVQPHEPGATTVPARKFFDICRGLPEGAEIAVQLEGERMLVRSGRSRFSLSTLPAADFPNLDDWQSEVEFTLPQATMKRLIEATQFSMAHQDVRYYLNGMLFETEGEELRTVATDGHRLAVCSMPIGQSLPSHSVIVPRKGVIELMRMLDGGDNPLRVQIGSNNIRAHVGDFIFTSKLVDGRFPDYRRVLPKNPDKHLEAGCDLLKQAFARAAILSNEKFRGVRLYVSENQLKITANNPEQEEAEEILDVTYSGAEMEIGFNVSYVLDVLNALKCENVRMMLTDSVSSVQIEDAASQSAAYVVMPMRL

B1: Pol IV DNA polymerase of Escherichia coli (protein)
chain: MRKIIHVDMDCFFAAVEMRDNPALRDIPIAIGGSRERRGVISTANYPARKFGVRSAMPTGMALKLCPHLTLLPGRFDAYKEASNHIREIFSRYTSRIEPLSLDEAYLDVTDSVHCHGSATLIAQEIRQTIFNELQLTASAGVAPVKFLAKIASDMNKPNGQFVITPAEVPAFLQTLPLAKIPGVGKVSAAKLEAMGLRTCGDVQKCDLVMLLKRFGKFGRILWERSQGIDERDVNSERLRKSVGVERTMAEDIHHWSECEAIIERLYPELERRLAKVKPDLLIARQGVKLKFDDFQQTTQEHVWPRLNKADLIATARKTWDERRGGRGVRLVGLHVTLLDPQMERQLVLGL
growth rate (OD 600 nm) of E. coli on IPTG-induced expression: a clear growth inhibition was observed for the culture expressing the wild type Pol IV protein compared to the one expressing the mutant protein | in vitro polymerase activity of Pol IV: the in vitro activity of Pol IV is greatly enhanced by the presence of the β subunit loaded onto a primer/template DNA substrate
